One substance from article PMC12485048 can be followed below.

For this test, the target named is Ca2+/calmodulin-dependent protein kinase II (CaMKII) (mouse (endogenous in striatum)) (UniProt P28652). The experiment in a line: co-IP; endogenous proteins in mouse striatum lysate (20 mM Tris-HCl pH 7.4, 50 mM NaCl, 0.5% NP-40, 10 mM HEPES, 0.5 mM EDTA); 2 μg primary antibody on Protein A/G or Protein G magnetic beads, lysate at 4 °C overnight; western blot; for CaMKII–PPP1CC, WT and Sh3rf2 KO striatum compared.
Chain of UniProt P28652 (P28652 whole entry): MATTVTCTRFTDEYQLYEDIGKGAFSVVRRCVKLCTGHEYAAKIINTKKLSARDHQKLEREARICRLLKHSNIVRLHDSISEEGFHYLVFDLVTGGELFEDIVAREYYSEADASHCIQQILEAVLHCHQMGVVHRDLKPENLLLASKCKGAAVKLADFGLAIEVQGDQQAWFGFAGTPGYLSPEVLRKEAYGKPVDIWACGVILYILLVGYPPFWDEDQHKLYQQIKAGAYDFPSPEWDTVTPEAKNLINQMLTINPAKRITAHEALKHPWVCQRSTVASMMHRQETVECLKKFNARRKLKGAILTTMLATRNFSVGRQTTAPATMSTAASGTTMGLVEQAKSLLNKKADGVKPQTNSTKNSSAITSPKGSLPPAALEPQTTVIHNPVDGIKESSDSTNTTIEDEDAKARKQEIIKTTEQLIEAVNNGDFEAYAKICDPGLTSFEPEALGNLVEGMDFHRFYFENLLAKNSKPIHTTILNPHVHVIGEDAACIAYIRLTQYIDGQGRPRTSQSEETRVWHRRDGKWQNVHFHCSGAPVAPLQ

“PP1 catalytic subunit gamma (PPP1CC) (from UniProt P63087 1-323) (enzyme)” gave a reduction of CaMKII–PPP1CC co-precipitate in Sh3rf2 KO against WT striatum of 80%.
